Assay results published in patent US20230034906A1 (TRINOMAB BIOTECH, published 2023).

What was measured:
Assay in all cases: indirect ELISA, antibody titrated on gB glycoprotein mutant
[1] = molecular target: T1, gB_Towne protein with N302 mutated into glutamine (human cytomegalovirus, strain Towne, UniProt F5HB53 25-700)
T1 chain: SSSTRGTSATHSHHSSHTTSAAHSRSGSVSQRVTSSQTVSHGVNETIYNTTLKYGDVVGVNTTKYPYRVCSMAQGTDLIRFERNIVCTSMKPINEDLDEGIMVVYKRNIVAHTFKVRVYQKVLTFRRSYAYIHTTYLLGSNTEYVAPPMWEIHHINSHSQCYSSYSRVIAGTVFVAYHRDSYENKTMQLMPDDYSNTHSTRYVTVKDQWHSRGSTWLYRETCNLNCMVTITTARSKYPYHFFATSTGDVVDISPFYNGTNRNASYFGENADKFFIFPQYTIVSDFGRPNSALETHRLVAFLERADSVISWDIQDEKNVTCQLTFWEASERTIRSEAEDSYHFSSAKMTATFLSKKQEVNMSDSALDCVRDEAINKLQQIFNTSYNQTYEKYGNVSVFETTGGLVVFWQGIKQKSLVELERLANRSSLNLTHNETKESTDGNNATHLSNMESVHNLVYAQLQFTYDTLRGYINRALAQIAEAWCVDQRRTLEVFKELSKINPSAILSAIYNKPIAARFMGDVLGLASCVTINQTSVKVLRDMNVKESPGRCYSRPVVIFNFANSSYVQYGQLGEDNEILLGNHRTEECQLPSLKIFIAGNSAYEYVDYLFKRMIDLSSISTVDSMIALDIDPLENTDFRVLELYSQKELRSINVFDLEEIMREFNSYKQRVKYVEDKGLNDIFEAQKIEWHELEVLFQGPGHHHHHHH

[2] = molecular target: T2, gB_Towne protein with N341 mutated into glutamine (human cytomegalovirus, strain Towne, UniProt F5HB53 25-700)
T2 chain: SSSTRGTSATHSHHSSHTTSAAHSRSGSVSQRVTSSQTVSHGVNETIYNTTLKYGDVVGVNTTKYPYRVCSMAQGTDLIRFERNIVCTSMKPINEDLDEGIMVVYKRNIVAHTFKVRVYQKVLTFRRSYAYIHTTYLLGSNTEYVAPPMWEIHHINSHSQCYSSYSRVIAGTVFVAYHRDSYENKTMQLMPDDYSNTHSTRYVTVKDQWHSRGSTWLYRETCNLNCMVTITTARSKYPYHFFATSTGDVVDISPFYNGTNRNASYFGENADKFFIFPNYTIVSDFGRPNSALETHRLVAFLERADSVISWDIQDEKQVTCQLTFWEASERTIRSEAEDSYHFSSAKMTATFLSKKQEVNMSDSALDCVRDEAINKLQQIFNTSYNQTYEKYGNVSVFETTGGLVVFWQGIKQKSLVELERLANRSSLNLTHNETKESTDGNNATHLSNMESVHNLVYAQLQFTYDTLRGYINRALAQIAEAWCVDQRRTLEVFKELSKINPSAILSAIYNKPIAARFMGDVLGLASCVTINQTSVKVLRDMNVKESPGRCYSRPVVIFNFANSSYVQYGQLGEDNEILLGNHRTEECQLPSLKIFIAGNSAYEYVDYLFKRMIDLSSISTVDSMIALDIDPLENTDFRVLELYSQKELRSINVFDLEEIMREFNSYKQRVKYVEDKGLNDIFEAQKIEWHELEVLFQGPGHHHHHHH

[3] = molecular target: T3, gB_Towne protein with N405 mutated into glutamine (human cytomegalovirus, strain Towne, UniProt F5HB53 25-700)
T3 chain: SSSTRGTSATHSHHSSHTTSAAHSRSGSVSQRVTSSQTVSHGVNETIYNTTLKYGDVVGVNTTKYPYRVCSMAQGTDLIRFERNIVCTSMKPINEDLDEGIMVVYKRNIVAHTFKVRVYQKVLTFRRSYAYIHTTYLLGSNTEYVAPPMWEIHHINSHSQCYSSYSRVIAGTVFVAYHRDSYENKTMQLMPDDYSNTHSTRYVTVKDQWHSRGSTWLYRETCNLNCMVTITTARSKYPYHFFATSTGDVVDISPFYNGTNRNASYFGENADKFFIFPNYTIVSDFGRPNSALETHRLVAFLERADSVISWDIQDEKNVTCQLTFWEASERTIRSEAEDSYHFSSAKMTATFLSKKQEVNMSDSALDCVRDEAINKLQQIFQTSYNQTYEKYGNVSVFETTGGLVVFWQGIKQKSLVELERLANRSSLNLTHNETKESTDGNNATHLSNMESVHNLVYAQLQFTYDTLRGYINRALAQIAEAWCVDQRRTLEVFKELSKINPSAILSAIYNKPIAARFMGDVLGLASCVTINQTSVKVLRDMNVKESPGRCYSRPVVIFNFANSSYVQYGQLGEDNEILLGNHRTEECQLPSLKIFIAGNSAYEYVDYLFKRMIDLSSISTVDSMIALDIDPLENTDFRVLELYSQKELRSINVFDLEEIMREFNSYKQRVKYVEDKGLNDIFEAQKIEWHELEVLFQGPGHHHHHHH

[4] = molecular target: T4, gB_Towne protein with N456 mutated into glutamine (human cytomegalovirus, strain Towne, UniProt F5HB53 25-700)
T4 chain: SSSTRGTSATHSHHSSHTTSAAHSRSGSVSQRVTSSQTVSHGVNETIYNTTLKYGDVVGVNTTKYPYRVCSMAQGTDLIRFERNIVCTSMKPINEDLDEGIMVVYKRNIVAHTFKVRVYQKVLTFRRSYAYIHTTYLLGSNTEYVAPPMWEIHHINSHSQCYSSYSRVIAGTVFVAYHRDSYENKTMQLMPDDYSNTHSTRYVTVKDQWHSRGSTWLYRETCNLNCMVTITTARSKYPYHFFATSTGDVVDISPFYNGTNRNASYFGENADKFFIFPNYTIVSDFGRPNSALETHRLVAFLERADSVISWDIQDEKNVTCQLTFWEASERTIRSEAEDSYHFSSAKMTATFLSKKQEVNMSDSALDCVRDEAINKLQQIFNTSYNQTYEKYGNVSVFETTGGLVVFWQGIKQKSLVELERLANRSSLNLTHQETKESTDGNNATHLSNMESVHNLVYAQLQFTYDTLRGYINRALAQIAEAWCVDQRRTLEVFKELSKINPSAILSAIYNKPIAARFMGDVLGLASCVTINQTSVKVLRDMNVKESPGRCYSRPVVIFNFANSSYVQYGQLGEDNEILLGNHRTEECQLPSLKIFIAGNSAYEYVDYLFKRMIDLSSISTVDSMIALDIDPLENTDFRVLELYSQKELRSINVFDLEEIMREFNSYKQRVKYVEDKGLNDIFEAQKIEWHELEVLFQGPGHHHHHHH

Measured: binding result

B1: TRN1019 (antibody, V domains shown)
VH: QVQLVQSGAEVKKPGESLKISCKGSGYTFTNYWIGWVRQMPGAGLEWMAIIFPRDSYSAYSPSFQGRVTISVDKSISTAYLHWSSLEASDTAVYYCAIYNDLRSGNSWGQGTPLIVSS
VL: DIQMTQSPSSLSASVGDRVTITCRASQSITKYLNWYQQKPGRAPKLLIHTTSTLQSGVPSRFSGSGSGTDFTLTISSLQLEDFGTYYCQQSFSTLWTFGQGTKLDIKR
notes: Fully human antibody; kappa light chain
binds: all assays above
